In the assay the target is T1, MBP-tagged EIN3 purified from E. coli (Arabidopsis, UniProt O24606 1-628).
T1 construct: also called ETHYLENE … 3; source: E. coli, purified
T1 sequence (looked up): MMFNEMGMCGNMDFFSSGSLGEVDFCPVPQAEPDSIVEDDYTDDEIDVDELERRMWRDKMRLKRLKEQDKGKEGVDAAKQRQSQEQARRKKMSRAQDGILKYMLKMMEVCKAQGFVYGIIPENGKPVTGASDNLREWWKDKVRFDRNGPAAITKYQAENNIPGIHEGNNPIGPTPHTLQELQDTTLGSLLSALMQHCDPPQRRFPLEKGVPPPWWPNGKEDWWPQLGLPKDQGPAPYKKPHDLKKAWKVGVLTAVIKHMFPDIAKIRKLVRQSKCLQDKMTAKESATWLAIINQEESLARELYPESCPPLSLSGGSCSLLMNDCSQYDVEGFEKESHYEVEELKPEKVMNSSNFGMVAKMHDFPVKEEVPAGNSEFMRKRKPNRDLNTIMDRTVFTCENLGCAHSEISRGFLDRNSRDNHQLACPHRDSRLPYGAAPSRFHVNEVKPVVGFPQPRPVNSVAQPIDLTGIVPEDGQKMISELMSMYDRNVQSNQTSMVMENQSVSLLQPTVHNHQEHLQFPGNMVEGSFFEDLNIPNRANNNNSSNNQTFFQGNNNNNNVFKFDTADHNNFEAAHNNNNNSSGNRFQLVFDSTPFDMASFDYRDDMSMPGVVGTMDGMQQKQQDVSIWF
As to the kind of experiment: pull-down; in vitro GST pull-down; GST-tagged ENAP1 and MBP-tagged EIN3 purified from E. coli. The settings on record: both partners purified.

B1: GST-ENAP1, full length, purified from E. coli (natural protein, Arabidopsis, UniProt Q8VZI9 1-249, looked up)
chain: METTPETQSKTHRLPAGREDWWSEDATATLIEAWGDRYVNLNRGNLRQNDWKEVADAVNSSHGNGRPKTDVQCKNRIDTLKKKYKTEKAKPLSNWCFFDRLDFLIGPVMKKSSGAVVKSALMNPNLNPTGSKSTGSSLDDDDDDDDDDEEDDDDAGDWGFVVRKHRKVEDVDSSEGSAFRELARSILKLGEAFERIEGKKQQMMIELEKQRMEVAKELELQRMNMLMEMQLELEKSKLGKRRAASGKKL
notes: ENAP1, encoded by at3g11100, Arabidopsis, full length; The methods of the pull-down name the fusion protein 'GST-CD3'; also called GST-labelled ENAP1; GST-tagged ENAP1; source: E. coli, purified (glutathione Sepharose 4B)
As for B1, the binding result is given as “binds”.

Source of the values: publication PMC5063967, “EIN2-dependent regulation of acetylation of histone H3K14 and non-canonical histone H3K23 in ethylene signalling” (Nature Communications, 2016).
